The values that follow come from US20220396615A1 (NANJING GENSCRIPT BIOTECH, published 2022).

For orientation: EC50 means the concentration at which the effect is half-maximal.

The target of assay [1] is T1, Tag-free human IL6 recombinant protein (GenScript, Cat. No. Z03034) (human, UniProt P05231 30-212).
T1 construct: Bought recombinant protein; The catalogue number is printed only for the immunogen, and the assays say only 'recombinant IL6 protein' or 'IL6'; also called recombinant IL6 protein; Interleukin 6
Description: indirect ELISA, IL6 coated at 0.5 µg/ml, antibody titrated. On the procedure:
The purified antibodies were evaluated for the binding ability to IL6 by indirect ELISA. The ELISA plate (Nunc) was coated with 0.5 μg/ml recombinant IL6 protein in PBS at 100 μl/well at 4° C. overnight. The plate was washed with PBS-T (0.05% Tween) and was blocked with PBST containing 1% BSA at 200 μl/well at 37° C. for 0.5 h. The blocking solution was then discarded. 100 μl 10 μg/ml purified antibody was added to the first well, and 3-fold gradient dilution was performed for 11 test concentration gradients in total. Incubation was then performed at room temperature for 1 h. The plate was washed with PBST for three times and incubated with horseradish peroxidase-conjugated goat anti-mouse/rat IgG (Fab-specific) (GenScript) at 100 μl/well at 37° C. for 0.5 h. The plate was washed with PBST for five times, and TMB chromogenic solution (GenScript) was then added and incubation was performed in dark for 15 min at room temperature. The reaction was stopped by adding 50 μl 1M HCl stop solution (Sigma). The plate was read at 450 nm by a microplate reader. The binding ability of the clones 8H10B7E6, 23A9H3, 29D6B5, 41A10B8, 49F10H6, 53A2F9 (rat), and 61G1D8 (rat) for recombinant protein IL6 was shown in FIG. 3.
On the technique in general: ELISA stands for enzyme-linked immunosorbent assay.

Assay [2] concerns the target T1, Tag-free human IL6 recombinant protein …. As to the kind of experiment: cell-based or functional assay.

B1: 23A9H3 (antibody, V domains shown)
VH: QVQLQQSGAELAKPGASVKMSCKTSGYTFTNYWMHWVKQRPGQGLEWIGYVIPSTGYTDYNQSFKDKATLTADKSSNTAYMQVNSLTSEDSAVYYCASLLPGFAYWGQGTLVTVSA
VL: DVVMTQTPLSLPVSLGDQASISCRSSQSLVDSNGNTYLHWYLQKPGQSPKLLIYKVSNRFSGVPDRFSGSGSGTDFTLKISRVEAEDLGVYFCSQSTHVPPTFGGGTKLEIK
notes: Mouse hybridoma clone; Made recombinantly in HEK293-6E cells as variable region + constant region and purified on protein A as IgG
For the molecule B1, the EC50 in assay [1] was below 0.025 µg/mL.

B2: 29D6B5 (antibody, V domains shown)
VH: QVQLQQSGAELAEPGASVKMSCKASGYNFNNYWMHWVKQGPGQGLEWIGYIDPRTASIYYNQKFKDKATLTADKSSSTAYMQLSSLTSEDSAVYYCARILYGKYDVWGAGTTVIVSS
VL: DVVLTQTPLSLPVSLGNQASISCRSSQSLVDSNGNTYLHWYLQKPGQSPKVLIHKVSNRFSGVPDRFSGSGSGTDFTLKISRVEAEDLGVYFCSQSTHVPPTFGGGTKLEIK
notes: as for B1
For B2, the half-maximal effective concentration (EC50) in assay [1] was below 0.025 µg/mL.

B3: 61G1D8 (rat) (antibody, V domains shown)
VH: EVQLLESGGGLVQPGRSMKLSCAASGFTFSSFPMAWVRQTPSKALEWVATISPSGGTSYSRDSVKGRFTISRDNANSTLCLHMDSLKSEDTATYYCLRERIYNTYFDYWGQGVMVTVSS
VL: DIRMTHSPASLSASLGETVSIECLPSEDISSDLAWYQQKPGKSPQLLIYNANTLPNGVPSRFSGSRSGAQYFLKINSLQSEDVATYFCQQYDSYPYTFGTGTKLELK
notes: Rat hybridoma clone; Made recombinantly in HEK293-6E cells as variable region + constant region and purified on protein A as IgG
On to B3, for which, in assay [2], the “inhibitory IC50, IL6-dependent TF-1 cell proliferation” value was determined as 4.54 µg/mL. Besides, the EC50 in assay [1] is below 0.025 µg/mL.

B4: 41A10B8 (antibody, V domains shown)
VH: EVKLEESGGGLVQPGGSMKLSCAASGFTFSDAWMDWVRQSPDKGLEWVAEIRSKTYHPATYYTKSVRGRFTISRDDSKSSVYLQMNNLGAEDTGIYYCTRPRYYGGYFDYWGQGTTLTVSS
VL: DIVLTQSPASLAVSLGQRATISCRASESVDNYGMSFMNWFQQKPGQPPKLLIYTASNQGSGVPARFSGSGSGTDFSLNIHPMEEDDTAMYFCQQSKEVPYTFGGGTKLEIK
notes: as for B1
As for B4, in assay [1], the EC50 was below 0.025 µg/mL.

B5: 53A2F9 (rat) (antibody, V domains shown)
VH: QVQLKESGPGLVQPSQTLSLTCTVSGFSLTSHTVSWIRQPPGRGLEWMGKMWSNGDTDYDSAIRSRLSITRDTSKSQVFLKINSLQTEDTAMYFCARYYFSSYGGGYFDYWGQGVMVTVSS
VL: DTVLTQSPALAVSLGQRVTISCRASKSVSTYMHWYQQKSGQQPKLLIYSASNLESGVPSRFSGSGSGTDFTLTIDPVEADDIANYYCQQSDELPDTFGAGTKLELK
notes: as for B3
Regarding B5, the “inhibitory IC50, IL6-dependent TF-1 cell proliferation” value in assay [2] turned out to be 3.95 µg/mL. Also, the EC50 in assay [1] came to 0.04 nM.

B6: 49F10H6 (antibody, V domains shown)
VH: QVQLQQPGAELVKPGASVKMSCKASGYTFTNYIIHWIKQTPGQGLEWIGAIYPGNGDTSYSQKFKDKATLTADRSSSTAYMQLSSLTSEDSAVYYCARGDAGYSAWFAYWGQGTLVTVSA
VL: NIVLTQSPASLAVSLGQRATISCSASESVDSYGNNFMHWYQQRPGQPPKLLIYLASKLESGVPARFSGSGSRTEFTLTIDPVEAEDAATYYCQQNNEDPLTFGAGTKLELK
notes: as for B1
As to B6, the EC50 in assay [1] was below 0.025 µg/mL.
